From paper PMC7898620
Where “and” joins values, the source holds several entries; their conditions need not be identical. Equal values may be shown once.

Columns and labels:
[1] = biological target: RbmA R219A mutant (Vibrio cholerae); assay: SEC-SAXS; analytical Superdex 200 increase 3.2/300 column in line with SAXS, 0.075 ml/min; without MgPO4; conditions: scale: mol monomer per mol dimer
[2] = biological target: RbmA W119G mutant (Vibrio cholerae); assay: as above; conditions: scale: mol monomer per mol dimer
[3] = biological target: Rugosity and biofilm structure modulator A (RbmA), wild type (Vibrio cholerae); assay: time-resolved SAXS; stopped-flow mixing, 5 mg/ml RbmA in 20 mM Tris/HCl pH 8, 100 mM NaCl with 10 mM potassium phosphate and 2.5 mM MgCl2; followed for 3 hr
[4] = biological target: Rugosity and biofilm structure modulator A (RbmA), wild type (Vibrio cholerae); assay: SEC-MALS; ENrich SEC 70 column, 20 mM Tris pH 8.0, 200 mM NaCl, 2 mM DTT, 0.02% NaN3, 240-360 ug protein injected; without MgPO4
[5] = biological target: Rugosity and biofilm structure modulator A (RbmA), wild type (Vibrio cholerae); assay: AUC; sedimentation velocity, 40,000 RPM, RbmA 5 mg/ml, absorbance at 250 nm and Rayleigh interference; without MgPO4
RbmA E160A mutant = assay: SEC-MALS; conditions: parent: est. 58; read off a plot
RbmA R219A mutant = assay: SEC-MALS; conditions: parent: est. 58; read off a plot
RbmA W119G mutant = assay: SEC-MALS; conditions: parent: est. 58; read off a plot
RbmA W222G mutant = assay: SEC-MALS; conditions: parent: est. 58; read off a plot

RbmA R219A mutant (natural protein)
monomer:dimer molar ratio [1]: 3.5

RbmA W119G mutant (natural protein)
dimer:monomer molar ratio [2]: 2.5

Rugosity and biofilm structure modulator A (RbmA), wild type (natural protein)
stoichiometry N [3]: 6 | stoichiometry N [4]: 2 | stoichiometry N [5]: 4 and 2

Rugosity and biofilm structure modulator A (RbmA), wild type E160A
other: SEC-MALS average molecular weight (RbmA E160A mutant): 57 kg/mol

Rugosity and biofilm structure modulator A (RbmA), wild type R219A
other: SEC-MALS average molecular weight (RbmA R219A mutant): 36 kg/mol

Rugosity and biofilm structure modulator A (RbmA), wild type W119G
other: SEC-MALS average molecular weight (RbmA W119G mutant): 49 kg/mol

Rugosity and biofilm structure modulator A (RbmA), wild type W222G
other: SEC-MALS average molecular weight (RbmA W222G mutant): 58 kg/mol
